Reference: patent publication US20180057593A1 (published 2018)
Where two headings read alike, the source gives them in different places.

T1: single chain CD3εγ heterodimer (UniProt P07766 23-118; P09693 23-103)
T1 chain: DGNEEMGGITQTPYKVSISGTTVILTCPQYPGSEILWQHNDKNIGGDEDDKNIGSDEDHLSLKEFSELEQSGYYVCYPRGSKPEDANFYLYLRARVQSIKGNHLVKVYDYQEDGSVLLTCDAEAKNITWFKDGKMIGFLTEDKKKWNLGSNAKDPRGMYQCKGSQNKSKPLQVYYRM

B1: Unmasked v4 TDB (bispecific antibody, V domains shown)
VH 1: EVQLVQSGAEVKKPGASVKVSCKASGFTFTSYYIHWVRQAPGQGLEWIGWIYPENDNTKYNEKFKDRVTITADTSTSTAYLELSSLRSEDTAVYYCARDGYSRYYFDYWGQGTLVTVSS
VL 1: DIVMTQSPDSLAVSLGERATINCKSSQSLLNSRTRKNYLAWYQQKPGQSPKLLIYWTSTRKSGVPDRFSGSGSGTDFTLTISSLQAEDVAVYYCKASFILRTFGQGTKVEIK
VH 2: EVQLVESGGGLVQPGGSLRLSCAASGYTFTSYNMHWVRQAPGKGLEWVGAIYPGNGDTSYNQKFKGRFTISVDKSKNTLYLQMNSLRAEDTAVYYCARVVYYSNSYWYFDVWGQGTLVTVSS
VL 2: DIQMTQSPSSLSASVGDRVTITCRASSSVSYMHWYQQKPGKAPKPLIYAPSNLASGVPSRFSGSGSGTDFTLTISSLQPEDFATYYCQQWSFNPPTFGQGTKVEIK
B2: Unmasked v5 TDB (bispecific antibody, V domains shown)
VH 1: EVQLVQSGAEVKKPGASVKVSCKASGFTFTSYYIHWVRQAPGQGLEWIGWIYPENDNTKYNEKFKDRVTITADTSTSTAYLELSSLRSEDTAVYYCARDGYSRYYFDYWGQGTLVTVSS
VL 1: DIVMTQSPDSLAVSLGERATINCKSSQSLLNSRTRKNYLAWYQQKPGQSPKLLIYWTSTRKSGVPDRFSGSGSGTDFTLTISSLQAEDVAVYYCKQSAILRTFGQGTKVEIK
VH 2: EVQLVESGGGLVQPGGSLRLSCAASGYTFTSYNMHWVRQAPGKGLEWVGAIYPGNGDTSYNQKFKGRFTISVDKSKNTLYLQMNSLRAEDTAVYYCARVVYYSNSYWYFDVWGQGTLVTVSS
VL 2: DIQMTQSPSSLSASVGDRVTITCRASSSVSYMHWYQQKPGKAPKPLIYAPSNLASGVPSRFSGSGSGTDFTLTISSLQPEDFATYYCQQWSFNPPTFGQGTKVEIK
B3: Unmasked v3 TDB (bispecific antibody, V domains shown)
VH 1: EVQLVQSGAEVKKPGASVKVSCKASGFTFTSYYIHWVRQAPGQGLEWIGWIYPENDNTKYNEKFKDRVTITADTSTSTAYLELSSLRSEDTAVYYCARDGYSRYYFDYWGQGTLVTVSS
VL 1: DIVMTQSPDSLAVSLGERATINCKSSQSLLNSRTRKNYLAWYQQKPGQSPKLLIYWTSTRKSGVPDRFSGSGSGTDFTLTISSLQAEDVAVYYCKQSFALRTFGQGTKVEIK
VH 2: EVQLVESGGGLVQPGGSLRLSCAASGYTFTSYNMHWVRQAPGKGLEWVGAIYPGNGDTSYNQKFKGRFTISVDKSKNTLYLQMNSLRAEDTAVYYCARVVYYSNSYWYFDVWGQGTLVTVSS
VL 2: DIQMTQSPSSLSASVGDRVTITCRASSSVSYMHWYQQKPGKAPKPLIYAPSNLASGVPSRFSGSGSGTDFTLTISSLQPEDFATYYCQQWSFNPPTFGQGTKVEIK
B4: Unmasked v1 TDB (bispecific antibody, V domains shown)
VH 1: EVQLVQSGAEVKKPGASVKVSCKASGFTFTSYYIHWVRQAPGQGLEWIGWIYPENDNTKYNEKFKDRVTITADTSTSTAYLELSSLRSEDTAVYYCARDGYSRYYFDYWGQGTLVTVSS
VL 1: DIVMTQSPDSLAVSLGERATINCKSSQSLLNSRTRKNYLAWYQQKPGQSPKLLIYWTSTRKSGVPDRFSGSGSGTDFTLTISSLQAEDVAVYYCKQSFILRTFGQGTKVEIK
VH 2: EVQLVESGGGLVQPGGSLRLSCAASGYTFTSYNMHWVRQAPGKGLEWVGAIYPGNGDTSYNQKFKGRFTISVDKSKNTLYLQMNSLRAEDTAVYYCARVVYYSNSYWYFDVWGQGTLVTVSS
VL 2: DIQMTQSPSSLSASVGDRVTITCRASSSVSYMHWYQQKPGKAPKPLIYAPSNLASGVPSRFSGSGSGTDFTLTISSLQPEDFATYYCQQWSFNPPTFGQGTKVEIK

Experiments:
[1] = target: T1, single chain CD3εγ heterodimer; test: Biacore
[2] = target: T1, single chain CD3εγ heterodimer; test: Biacore

Binder | Kd [1] | Kd [2]
B1 | 119 nM | 119 nM
B2 | 18 nM | 18 nM
B3 | 3.5 nM | 3.5 nM
B4 | 1.2 nM | 1.2 nM
